Reference: patent US10584350B2, “Structurally modified COI1” (Board of Trustees of Michigan State University, priority 2016, dated 2020)

Each molecule was assayed on COI1-JAZ9 interaction (assay: Y2H assays on plates for protein-protein interaction). Conditions: 10 μM COR, yeast.
Assay type: cell-based, Arabidopsis
Description: Yeast EGY48 strain carrying the p8Op:LacZ reporter plasmid was co-transformed with pGilda:COI1 (or COI1 mutants) and pB42AD:JAZ9 (or other JAZs) (Clontech). Colonies were selected on SD minimal plates (BD Biosciences) supplemented with the—uracil (U)/-tryptophan (W)/-histidine (H) amino acid drop out solution (Clontech). Yeast colonies were cultured overnight in liquid SD-UWH medium, harvested, washed twice in sterile water, and the absorbance (OD600) of the cultures was adjusted to 0.2 in liquid SD galactose/raffinose-UWH medium (BD Biosciences).
For Y2H assays on plates, 10-μL culture was spotted onto SD galactose/raffinose-UWH plates with 80 μg/mL X-gal and 10 μM COR (Sigma-Aldrich). Blue color indicated protein-protein interactions after 5-7 days of incubation at 30° C.

Molecule | COR-dependent COI1-JAZ9 interaction
Y386: COI1 alanine substitution mutant at Y386 (protein, UniProt O04197 1-592, looked up, variant Y386A) Coronatine-insensitive …: MEDPDIKRCKLSCVATVDDVIEQVMTYITDPKDRDSASLVCRRWFKIDSETREHVTMALCYTATPDRLSRRFPNLRSLKLKGKPRAAMFNLIPENWGGYVTPWVTEISNNLRQLKSVHFRRMIVSDLDLDRLAKARADDLETLKLDKCSGFTTDGLLSIVTHCRKIKTLLMEESSFSEKDGKWLHELAQHNTSLEVLNFYMTEFAKISPKDLETIARNCRSLVSVKVGDFEILELVGFFKAAANLEEFCGGSLNEDIGMPEKYMNLVFPRKLCRLGLSYMGPNEMPILFPFAAQIRKLDLLYALLETEDHCTLIQKCPNLEVLETRNVIGDRGLEVLAQYCKQLKRLRIERGADEQGMEDEEGLVSQRGLIALAQGCQELEYMAVAVSDITNESLESIGTYLKNLCDFRLVLLDREERITDLPLDNGVRSLLIGCKKLRRFAFYLRQGGLTDLGLSYIGQYSPNVRWMLLGYVGESDEGLMEFSRGCPNLQKLEMRGCCFSERAIAAAVTKLPSLRYLWVQGYRASMTGQDLMQMARPYWNIELIPSRRVPEVNQQGEIREMEHPAHILAYYSLAGQRTDCPTTVRVLKEPI | reduced
L413: COI1 alanine substitution mutant at L413 (protein, UniProt O04197 1-592, looked up, variant L413A) Coronatine-insensitive …: MEDPDIKRCKLSCVATVDDVIEQVMTYITDPKDRDSASLVCRRWFKIDSETREHVTMALCYTATPDRLSRRFPNLRSLKLKGKPRAAMFNLIPENWGGYVTPWVTEISNNLRQLKSVHFRRMIVSDLDLDRLAKARADDLETLKLDKCSGFTTDGLLSIVTHCRKIKTLLMEESSFSEKDGKWLHELAQHNTSLEVLNFYMTEFAKISPKDLETIARNCRSLVSVKVGDFEILELVGFFKAAANLEEFCGGSLNEDIGMPEKYMNLVFPRKLCRLGLSYMGPNEMPILFPFAAQIRKLDLLYALLETEDHCTLIQKCPNLEVLETRNVIGDRGLEVLAQYCKQLKRLRIERGADEQGMEDEEGLVSQRGLIALAQGCQELEYMAVYVSDITNESLESIGTYLKNLCDFRLVLADREERITDLPLDNGVRSLLIGCKKLRRFAFYLRQGGLTDLGLSYIGQYSPNVRWMLLGYVGESDEGLMEFSRGCPNLQKLEMRGCCFSERAIAAAVTKLPSLRYLWVQGYRASMTGQDLMQMARPYWNIELIPSRRVPEVNQQGEIREMEHPAHILAYYSLAGQRTDCPTTVRVLKEPI | reduced
D407: COI1 alanine substitution mutant at D407 (protein, UniProt O04197 1-592, looked up, variant D407A) Coronatine-insensitive …: MEDPDIKRCKLSCVATVDDVIEQVMTYITDPKDRDSASLVCRRWFKIDSETREHVTMALCYTATPDRLSRRFPNLRSLKLKGKPRAAMFNLIPENWGGYVTPWVTEISNNLRQLKSVHFRRMIVSDLDLDRLAKARADDLETLKLDKCSGFTTDGLLSIVTHCRKIKTLLMEESSFSEKDGKWLHELAQHNTSLEVLNFYMTEFAKISPKDLETIARNCRSLVSVKVGDFEILELVGFFKAAANLEEFCGGSLNEDIGMPEKYMNLVFPRKLCRLGLSYMGPNEMPILFPFAAQIRKLDLLYALLETEDHCTLIQKCPNLEVLETRNVIGDRGLEVLAQYCKQLKRLRIERGADEQGMEDEEGLVSQRGLIALAQGCQELEYMAVYVSDITNESLESIGTYLKNLCAFRLVLLDREERITDLPLDNGVRSLLIGCKKLRRFAFYLRQGGLTDLGLSYIGQYSPNVRWMLLGYVGESDEGLMEFSRGCPNLQKLEMRGCCFSERAIAAAVTKLPSLRYLWVQGYRASMTGQDLMQMARPYWNIELIPSRRVPEVNQQGEIREMEHPAHILAYYSLAGQRTDCPTTVRVLKEPI | reduced
R440: COI1 alanine substitution mutant at R440 (protein, UniProt O04197 1-592, looked up, variant R440A) Coronatine-insensitive …: MEDPDIKRCKLSCVATVDDVIEQVMTYITDPKDRDSASLVCRRWFKIDSETREHVTMALCYTATPDRLSRRFPNLRSLKLKGKPRAAMFNLIPENWGGYVTPWVTEISNNLRQLKSVHFRRMIVSDLDLDRLAKARADDLETLKLDKCSGFTTDGLLSIVTHCRKIKTLLMEESSFSEKDGKWLHELAQHNTSLEVLNFYMTEFAKISPKDLETIARNCRSLVSVKVGDFEILELVGFFKAAANLEEFCGGSLNEDIGMPEKYMNLVFPRKLCRLGLSYMGPNEMPILFPFAAQIRKLDLLYALLETEDHCTLIQKCPNLEVLETRNVIGDRGLEVLAQYCKQLKRLRIERGADEQGMEDEEGLVSQRGLIALAQGCQELEYMAVYVSDITNESLESIGTYLKNLCDFRLVLLDREERITDLPLDNGVRSLLIGCKKLRAFAFYLRQGGLTDLGLSYIGQYSPNVRWMLLGYVGESDEGLMEFSRGCPNLQKLEMRGCCFSERAIAAAVTKLPSLRYLWVQGYRASMTGQDLMQMARPYWNIELIPSRRVPEVNQQGEIREMEHPAHILAYYSLAGQRTDCPTTVRVLKEPI | reduced
R415: COI1 alanine substitution mutant at R415 (protein, UniProt O04197 1-592, looked up, variant R415A) Coronatine-insensitive …: MEDPDIKRCKLSCVATVDDVIEQVMTYITDPKDRDSASLVCRRWFKIDSETREHVTMALCYTATPDRLSRRFPNLRSLKLKGKPRAAMFNLIPENWGGYVTPWVTEISNNLRQLKSVHFRRMIVSDLDLDRLAKARADDLETLKLDKCSGFTTDGLLSIVTHCRKIKTLLMEESSFSEKDGKWLHELAQHNTSLEVLNFYMTEFAKISPKDLETIARNCRSLVSVKVGDFEILELVGFFKAAANLEEFCGGSLNEDIGMPEKYMNLVFPRKLCRLGLSYMGPNEMPILFPFAAQIRKLDLLYALLETEDHCTLIQKCPNLEVLETRNVIGDRGLEVLAQYCKQLKRLRIERGADEQGMEDEEGLVSQRGLIALAQGCQELEYMAVYVSDITNESLESIGTYLKNLCDFRLVLLDAEERITDLPLDNGVRSLLIGCKKLRRFAFYLRQGGLTDLGLSYIGQYSPNVRWMLLGYVGESDEGLMEFSRGCPNLQKLEMRGCCFSERAIAAAVTKLPSLRYLWVQGYRASMTGQDLMQMARPYWNIELIPSRRVPEVNQQGEIREMEHPAHILAYYSLAGQRTDCPTTVRVLKEPI | reduced
V411: COI1 alanine substitution mutant at V411 (protein, UniProt O04197 1-592, looked up, variant V411A) Coronatine-insensitive …: MEDPDIKRCKLSCVATVDDVIEQVMTYITDPKDRDSASLVCRRWFKIDSETREHVTMALCYTATPDRLSRRFPNLRSLKLKGKPRAAMFNLIPENWGGYVTPWVTEISNNLRQLKSVHFRRMIVSDLDLDRLAKARADDLETLKLDKCSGFTTDGLLSIVTHCRKIKTLLMEESSFSEKDGKWLHELAQHNTSLEVLNFYMTEFAKISPKDLETIARNCRSLVSVKVGDFEILELVGFFKAAANLEEFCGGSLNEDIGMPEKYMNLVFPRKLCRLGLSYMGPNEMPILFPFAAQIRKLDLLYALLETEDHCTLIQKCPNLEVLETRNVIGDRGLEVLAQYCKQLKRLRIERGADEQGMEDEEGLVSQRGLIALAQGCQELEYMAVYVSDITNESLESIGTYLKNLCDFRLALLDREERITDLPLDNGVRSLLIGCKKLRRFAFYLRQGGLTDLGLSYIGQYSPNVRWMLLGYVGESDEGLMEFSRGCPNLQKLEMRGCCFSERAIAAAVTKLPSLRYLWVQGYRASMTGQDLMQMARPYWNIELIPSRRVPEVNQQGEIREMEHPAHILAYYSLAGQRTDCPTTVRVLKEPI | reduced
L410: COI1 alanine substitution mutant at L410 (protein, UniProt O04197 1-592, looked up, variant L410A) Coronatine-insensitive …: MEDPDIKRCKLSCVATVDDVIEQVMTYITDPKDRDSASLVCRRWFKIDSETREHVTMALCYTATPDRLSRRFPNLRSLKLKGKPRAAMFNLIPENWGGYVTPWVTEISNNLRQLKSVHFRRMIVSDLDLDRLAKARADDLETLKLDKCSGFTTDGLLSIVTHCRKIKTLLMEESSFSEKDGKWLHELAQHNTSLEVLNFYMTEFAKISPKDLETIARNCRSLVSVKVGDFEILELVGFFKAAANLEEFCGGSLNEDIGMPEKYMNLVFPRKLCRLGLSYMGPNEMPILFPFAAQIRKLDLLYALLETEDHCTLIQKCPNLEVLETRNVIGDRGLEVLAQYCKQLKRLRIERGADEQGMEDEEGLVSQRGLIALAQGCQELEYMAVYVSDITNESLESIGTYLKNLCDFRAVLLDREERITDLPLDNGVRSLLIGCKKLRRFAFYLRQGGLTDLGLSYIGQYSPNVRWMLLGYVGESDEGLMEFSRGCPNLQKLEMRGCCFSERAIAAAVTKLPSLRYLWVQGYRASMTGQDLMQMARPYWNIELIPSRRVPEVNQQGEIREMEHPAHILAYYSLAGQRTDCPTTVRVLKEPI | reduced
L412: COI1 alanine substitution mutant at L412 (protein, UniProt O04197 1-592, looked up, variant L412A) Coronatine-insensitive …: MEDPDIKRCKLSCVATVDDVIEQVMTYITDPKDRDSASLVCRRWFKIDSETREHVTMALCYTATPDRLSRRFPNLRSLKLKGKPRAAMFNLIPENWGGYVTPWVTEISNNLRQLKSVHFRRMIVSDLDLDRLAKARADDLETLKLDKCSGFTTDGLLSIVTHCRKIKTLLMEESSFSEKDGKWLHELAQHNTSLEVLNFYMTEFAKISPKDLETIARNCRSLVSVKVGDFEILELVGFFKAAANLEEFCGGSLNEDIGMPEKYMNLVFPRKLCRLGLSYMGPNEMPILFPFAAQIRKLDLLYALLETEDHCTLIQKCPNLEVLETRNVIGDRGLEVLAQYCKQLKRLRIERGADEQGMEDEEGLVSQRGLIALAQGCQELEYMAVYVSDITNESLESIGTYLKNLCDFRLVALDREERITDLPLDNGVRSLLIGCKKLRRFAFYLRQGGLTDLGLSYIGQYSPNVRWMLLGYVGESDEGLMEFSRGCPNLQKLEMRGCCFSERAIAAAVTKLPSLRYLWVQGYRASMTGQDLMQMARPYWNIELIPSRRVPEVNQQGEIREMEHPAHILAYYSLAGQRTDCPTTVRVLKEPI | reduced
